Paper PMC12208556

Molecular target: recombinant full-length thrombospondin-1 (human) (UniProt P07996)
Assay: SPR; BIAcore 3000; TSP-1 bound covalently to CM5 chips at 0.1 uM; complement proteins as analytes at 12.3, 37.03, 111.1, 333.3, 1,000 nM in PBS plus 0.05% Tween 20; 1:1 Langmuir binding model; average of 3 repeated measurements

Chain of recombinant full-length thrombospondin-1 (human) (P07996 19-1170): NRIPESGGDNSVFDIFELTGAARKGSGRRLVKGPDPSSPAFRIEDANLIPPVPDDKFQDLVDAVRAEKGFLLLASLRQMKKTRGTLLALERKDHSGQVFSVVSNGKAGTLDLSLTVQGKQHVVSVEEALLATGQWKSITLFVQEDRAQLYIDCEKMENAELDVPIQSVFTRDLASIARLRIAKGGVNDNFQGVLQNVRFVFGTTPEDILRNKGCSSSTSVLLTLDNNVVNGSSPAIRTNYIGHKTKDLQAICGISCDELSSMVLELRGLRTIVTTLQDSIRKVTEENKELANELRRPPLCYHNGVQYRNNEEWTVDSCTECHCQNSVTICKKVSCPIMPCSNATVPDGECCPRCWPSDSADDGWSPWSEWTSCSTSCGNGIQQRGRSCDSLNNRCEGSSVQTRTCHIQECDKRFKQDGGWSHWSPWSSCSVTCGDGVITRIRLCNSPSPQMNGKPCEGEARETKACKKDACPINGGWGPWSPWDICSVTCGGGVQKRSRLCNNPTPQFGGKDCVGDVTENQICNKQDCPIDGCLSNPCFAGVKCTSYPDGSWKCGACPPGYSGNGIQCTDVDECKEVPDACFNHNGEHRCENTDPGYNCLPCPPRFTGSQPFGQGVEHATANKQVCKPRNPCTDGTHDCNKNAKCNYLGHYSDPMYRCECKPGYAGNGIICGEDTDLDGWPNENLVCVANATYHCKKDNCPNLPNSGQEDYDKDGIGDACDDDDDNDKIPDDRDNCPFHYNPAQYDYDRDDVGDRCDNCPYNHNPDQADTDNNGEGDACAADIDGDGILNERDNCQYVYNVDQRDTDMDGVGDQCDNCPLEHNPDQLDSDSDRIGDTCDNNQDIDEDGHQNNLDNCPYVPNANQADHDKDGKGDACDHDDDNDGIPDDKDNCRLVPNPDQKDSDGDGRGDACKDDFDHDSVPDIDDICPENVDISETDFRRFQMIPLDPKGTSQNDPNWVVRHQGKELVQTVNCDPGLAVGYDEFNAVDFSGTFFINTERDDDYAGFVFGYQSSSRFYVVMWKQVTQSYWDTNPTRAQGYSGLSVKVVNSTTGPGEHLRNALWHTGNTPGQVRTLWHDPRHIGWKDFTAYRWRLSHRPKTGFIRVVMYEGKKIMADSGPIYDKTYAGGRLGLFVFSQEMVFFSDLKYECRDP

Kd [nM]	Substance
47.2	complement C5 (natural protein)
127	complement C3 (natural protein)
